From PMC6118392, “VapC proteins from Mycobacterium tuberculosis share ribonuclease sequence specificity but differ in regulation and toxicity” (PLoS ONE, 2018)

T1: VapB1;VapC1 (UniProt P0CW29+P9WFC1)
T1 sequence 1: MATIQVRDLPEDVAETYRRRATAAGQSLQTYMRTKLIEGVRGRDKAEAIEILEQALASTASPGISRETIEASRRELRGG
T1 sequence 2: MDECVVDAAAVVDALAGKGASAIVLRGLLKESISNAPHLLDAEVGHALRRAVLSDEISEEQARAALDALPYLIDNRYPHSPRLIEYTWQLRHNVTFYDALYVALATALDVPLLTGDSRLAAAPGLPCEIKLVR

T2: VapB29;VapC29 (UniProt P9WJ37+P9WF79)
T2 sequence 1: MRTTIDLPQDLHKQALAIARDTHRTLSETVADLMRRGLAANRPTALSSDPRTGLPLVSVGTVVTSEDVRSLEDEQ
T2 sequence 2: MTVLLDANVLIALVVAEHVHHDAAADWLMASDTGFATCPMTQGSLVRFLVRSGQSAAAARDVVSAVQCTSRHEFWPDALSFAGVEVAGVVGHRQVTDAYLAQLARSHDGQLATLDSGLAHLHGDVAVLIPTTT

T3: VapB29;VapC29 (Mycobacterium tuberculosis …, UniProt P9WJ37;P9WF79 1-75;1-133, |)
T3 sequence 1: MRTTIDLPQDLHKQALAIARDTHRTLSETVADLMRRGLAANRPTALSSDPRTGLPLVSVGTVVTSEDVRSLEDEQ
T3 sequence 2: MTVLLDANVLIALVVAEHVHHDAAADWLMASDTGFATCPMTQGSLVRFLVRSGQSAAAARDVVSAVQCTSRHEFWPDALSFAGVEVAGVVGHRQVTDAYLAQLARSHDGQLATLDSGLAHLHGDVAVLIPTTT

B1: Oligo 5 (50 bp vapBC29 promoter, control) (dsDNA)
DNA 1: GGTGAGCGTCGGCGCGCGCATCACGATGCAGCGATGTTAGGATGAGGCGG
DNA 2: CCGCCTCATCCTAACATCGCTGCATCGTGATGCGCGCGCCGACGCTCACC

How the values were obtained:
Experiment in all cases: EMSA
[1] = biological target: T1, VapB1;VapC1
[2] = biological target: T2, VapB29;VapC29
[3] = biological target: T3, VapB29;VapC29; settings: protein: recombinant;recombinant; tags: ;C-terminal His; label: 3' DIG-ddUTP; blunt

| Molecule | binding [1] | binding [2] | binding result [3] |
| --- | --- | --- | --- |
| GTGGATAAGCCGGCATTCTTAGCCGGTGAACTCCGCTATGGCTACCATTCAAGTTCGGGATTTGCCCGAAGATGTCGCCGAAACCTATCGACGGCGCGCCACCGCAGCGGGGCAGTCGCTGCAGACGTATATGCGCACCAAGCTCATCGA (double strand) [vapBC1 promoter 150 bp] | no binding | no binding |  |
| CATGGGAATACGATACCAATGGCTTCCCACTCAGGTGCGGAAGTCGACTCACCGCCGTTACCACGACCCCGACGACCACACCGTCAGCTGCGGCGCGGCGTGGCGACTATTGGTCGCTAGTGTCGTGCTCCCGATTCGGGTCCTTTGTATCTGATGACGT (double strand) [vapBC27 promoter 160 bp] |  | no binding |  |
| AGCGGAGTTCACCGGCTAAGAATGCCGGCTTATCCACCGGGCGTTTCGGCGGCATCGATGGCCTTCTCTAACCGGTCGAGCACCGCGCGCAGATCGGCCAG (double strand) [vapBC1 promoter 101 bp] | no binding |  |  |
| B1 |  |  | binds |
